Measurements as given in patent publication US20200347130A1 (JIANGSU HENGRUI MEDICINE, published 2020).

B1: h1718-007 (antibody, V domains shown)
VH: EVQLVQSGAEVKKPGASVKVSCKASGYTITDYNMNWVRQAPGQRLEWIGVINPSYGITDYNQNFKDRVTITVDTSASTAYMELSSLRSEDTAVYYCAIQLRLPGYFDVWGQGTTVTVSS
VL: DIQMTQSPSSLSASVGDRVTITCKASQDINNYLNWFQQKPGKAPKTLIYRANRLVDGVPSRFSGSGSGQDYTLTISSLQPEDFATYYCLKYDEFPYTFGGGTKVEIK
notes: Only variable regions are tied to this name
B2: h1718-008 (antibody, V domains shown)
VH: EVQLVQSGAEVKKPGASVKVSCKASGYTITDYNMNWVKQAPGQRLEWIGVINPSYGITDYNQNFKDKVTITVDTSASTAYMELSSLRSEDTAVYYCAIQLRLPGYFDVWGQGTTVTVSS
VL: DIQMTQSPSSLSASVGDRVTITCKASQDINNYLNWFQQKPGKAPKTLIYRANRLVDGVPSRFSGSGSGQDYTLTISSLQPEDFATYYCLKYDEFPYTFGGGTKVEIK
notes: as for B1
B3: h1718-013 (antibody, V domains shown)
VH: EVQLVQSGAEVKKPGASVKVSCKASGYTITDYNMNWVRQAPGQRLEWIGVINPSYGITDYNQNFKDRVTITVDTSASTAYMELSSLRSEDTAVYYCAIQLRLPGYFDVWGQGTTVTVSS
VL: DIQMTQSPSSLSASVGDRVTITCKASQDINTYLNWFQQKPGKAPKTLIYRANRLVDGVPSRFSGSGSGQDYTLTISSLQPEDFATYYCLKYDEFPYTFGGGTKVEIK
notes: as for B1
B4: h1718-014 (antibody, V domains shown)
VH: EVQLVQSGAEVKKPGASVKVSCKASGYTITDYNMNWVRQAPGQRLEWIGVINPSYGITDYNQNFKDRVTITVDTSASTAYMELSSLRSEDTAVYYCAIQLRLPGYFDVWGQGTTVTVSS
VL: DIQMTQSPSSLSASVGDRVTITCKASQDINLYLNWFQQKPGKAPKTLIYRANRLVDGVPSRFSGSGSGQDYTLTISSLQPEDFATYYCLKYDEFPYTFGGGTKVEIK
notes: as for B1
B5: h1718-018 (antibody, V domains shown)
VH: EVQLVQSGAEVKKPGASVKVSCKASGYTITDYNMNWVKQAPGQRLEWIGVINPSYGITDYNQNFKDKVTITVDTSASTAYMELSSLRSEDTAVYYCAIQLRLPGYFDVWGQGTTVTVSS
VL: DIQMTQSPSSLSASVGDRVTITCKASQDINQYLNWFQQKPGKAPKTLIYRANRLVDGVPSRFSGSGSGQDYTLTISSLQPEDFATYYCLKYDEFPYTFGGGTKVEIK
notes: as for B1
B6: h1718-019 (antibody, V domains shown)
VH: EVQLVQSGAEVKKPGASVKVSCKASGYTITDYNMNWVKQAPGQRLEWIGVINPSYGITDYNQNFKDKVTITVDTSASTAYMELSSLRSEDTAVYYCAIQLRLPGYFDVWGQGTTVTVSS
VL: DIQMTQSPSSLSASVGDRVTITCKASQDINTYLNWFQQKPGKAPKTLIYRANRLVDGVPSRFSGSGSGQDYTLTISSLQPEDFATYYCLKYDEFPYTFGGGTKVEIK
notes: as for B1
B7: h1718-020 (antibody, V domains shown)
VH: EVQLVQSGAEVKKPGASVKVSCKASGYTITDYNMNWVKQAPGQRLEWIGVINPSYGITDYNQNFKDKVTITVDTSASTAYMELSSLRSEDTAVYYCAIQLRLPGYFDVWGQGTTVTVSS
VL: DIQMTQSPSSLSASVGDRVTITCKASQDINLYLNWFQQKPGKAPKTLIYRANRLVDGVPSRFSGSGSGQDYTLTISSLQPEDFATYYCLKYDEFPYTFGGGTKVEIK
notes: as for B1
B8: h1721-007 (antibody, V domains shown)
VH: EVTLKESGPVLVKPTETLTLTCTVSGFSLSSYGVNWIRQPPGKALEWLGVIWGDGSTNYHSALISRLTISKDTSKSQVVLTLTNMDPVDTATYYCAKNYFYGSRYGYAMDSWGQGTTVTVSS
VL: DIQMTQSPSSLSASVGDRVTITCRASENIYSSLAWYQQKPGKAPKLLVYNAKTLIEGVPSRFSGSGSGTDYTLTISSLQPEDFATYYCQHHYGTPYTFGGGTKVEIK
notes: as for B1
B9: h1721-001 (antibody, V domains shown)
VH: EVTLKESGPVLVKPTETLTLTCTVSGFSLSSYGVNWIRQPPGKALEWLAVIWGDGSTNYHSALISRLTISKDTSKSQVVLTMTNMDPVDTATYYCARNYFYGSRYGYAMDSWGQGTTVTVSS
VL: DIQMTQSPSSLSASVGDRVTITCRASENIYSSLAWYQQKPGKAPKLLIYNAKTLIEGVPSRFSGSGSGTDFTLTISSLQPEDFATYYCQHHYGTPYTFGGGTKVEIK
notes: as for B1
B10: h1721-002 (antibody, V domains shown)
VH: EVTLKESGPVLVKPTETLTLTCTVSGFSLSSYGVNWIRQPPGKALEWLGVIWGDGSTNYHSALISRLTISKDTSKSQVVLTMTNMDPVDTATYYCAKNYFYGSRYGYAMDSWGQGTTVTVSS
VL: DIQMTQSPSSLSASVGDRVTITCRASENIYSSLAWYQQKPGKAPKLLIYNAKTLIEGVPSRFSGSGSGTDFTLTISSLQPEDFATYYCQHHYGTPYTFGGGTKVEIK
notes: as for B1
B11: h1721-004 (antibody, V domains shown)
VH: EVTLKESGPVLVKPTETLTLTCTVSGFSLSSYGVNWVRQPPGKGLEWLGVIWGDGSTNYHSALISRLTISKDTSKSQVVLTLTNMDPVDTATYYCAKNYFYGSRYGYAMDSWGQGTTVTVSS
VL: DIQMTQSPSSLSASVGDRVTITCRASENIYSSLAWYQQKPGKAPKLLIYNAKTLIEGVPSRFSGSGSGTDFTLTISSLQPEDFATYYCQHHYGTPYTFGGGTKVEIK
notes: as for B1
B12: h1721-005 (antibody, V domains shown)
VH: EVTLKESGPVLVKPTETLTLTCTVSGFSLSSYGVNWIRQPPGKALEWLAVIWGDGSTNYHSALISRLTISKDTSKSQVVLTMTNMDPVDTATYYCARNYFYGSRYGYAMDSWGQGTTVTVSS
VL: DIQMTQSPSSLSASVGDRVTITCRASENIYSSLAWYQQKPGKAPKLLVYNAKTLIEGVPSRFSGSGSGTDYTLTISSLQPEDFATYYCQHHYGTPYTFGGGTKVEIK
notes: as for B1
B13: h1721-006 (antibody, V domains shown)
VH: EVTLKESGPVLVKPTETLTLTCTVSGFSLSSYGVNWIRQPPGKALEWLGVIWGDGSTNYHSALISRLTISKDTSKSQVVLTMTNMDPVDTATYYCAKNYFYGSRYGYAMDSWGQGTTVTVSS
VL: DIQMTQSPSSLSASVGDRVTITCRASENIYSSLAWYQQKPGKAPKLLVYNAKTLIEGVPSRFSGSGSGTDYTLTISSLQPEDFATYYCQHHYGTPYTFGGGTKVEIK
notes: as for B1
B14: h1721-008 (antibody, V domains shown)
VH: EVTLKESGPVLVKPTETLTLTCTVSGFSLSSYGVNWVRQPPGKGLEWLGVIWGDGSTNYHSALISRLTISKDTSKSQVVLTLTNMDPVDTATYYCAKNYFYGSRYGYAMDSWGQGTTVTVSS
VL: DIQMTQSPSSLSASVGDRVTITCRASENIYSSLAWYQQKPGKAPKLLVYNAKTLIEGVPSRFSGSGSGTDYTLTISSLQPEDFATYYCQHHYGTPYTFGGGTKVEIK
notes: as for B1
B15: h1721-009 (antibody, V domains shown)
VH: EVTLKESGPVLVKPTETLTLTCTVSGFSLSSYGVNWIRQPPGKALEWLAVIWGDGSTNYHSALISRLTISKDTSKSQVVLTMTNMDPVDTATYYCARNYFYGSRYGYAMDSWGQGTTVTVSS
VL: DIQMTQSPSSLSASVGDRVTITCRASENIYSSLAWYQQKPGKSPKLLVYNAKTLIEGVPSRFSGSGSGTDYTLTISSLQPEDFATYYCQHHYGTPYTFGGGTKVEIK
notes: as for B1
B16: h1721-010 (antibody, V domains shown)
VH: EVTLKESGPVLVKPTETLTLTCTVSGFSLSSYGVNWIRQPPGKALEWLGVIWGDGSTNYHSALISRLTISKDTSKSQVVLTMTNMDPVDTATYYCAKNYFYGSRYGYAMDSWGQGTTVTVSS
VL: DIQMTQSPSSLSASVGDRVTITCRASENIYSSLAWYQQKPGKSPKLLVYNAKTLIEGVPSRFSGSGSGTDYTLTISSLQPEDFATYYCQHHYGTPYTFGGGTKVEIK
notes: as for B1
B17: h1721-011 (antibody, V domains shown)
VH: EVTLKESGPVLVKPTETLTLTCTVSGFSLSSYGVNWIRQPPGKALEWLGVIWGDGSTNYHSALISRLTISKDTSKSQVVLTLTNMDPVDTATYYCAKNYFYGSRYGYAMDSWGQGTTVTVSS
VL: DIQMTQSPSSLSASVGDRVTITCRASENIYSSLAWYQQKPGKSPKLLVYNAKTLIEGVPSRFSGSGSGTDYTLTISSLQPEDFATYYCQHHYGTPYTFGGGTKVEIK
notes: as for B1
B18: h1721-012 (antibody, V domains shown)
VH: EVTLKESGPVLVKPTETLTLTCTVSGFSLSSYGVNWVRQPPGKGLEWLGVIWGDGSTNYHSALISRLTISKDTSKSQVVLTLTNMDPVDTATYYCAKNYFYGSRYGYAMDSWGQGTTVTVSS
VL: DIQMTQSPSSLSASVGDRVTITCRASENIYSSLAWYQQKPGKSPKLLVYNAKTLIEGVPSRFSGSGSGTDYTLTISSLQPEDFATYYCQHHYGTPYTFGGGTKVEIK
notes: also called h1721-0012
B19: h1722-007 (antibody, V domains shown)
VH: EVQLVQSGAEVKKPGSSVKVSCKASGGTFSDYWMHWVKQAPGQGLEWIGMLHPNSGTTSFNEKFKIRVTITIDKSTSTAYMELSSLRSEDTAVYYCASDYSGPFAYWGQGTLVTVSS
VL: DIQMTQSPSSLSASVGDRVTITCSASSSVNYIHWYQQKPGKAPKRWIYDTSKLASGVPSRFSGSGSGTDFTLTISSLQPEDFATYYCQQWRSNPLTFGQGTKLEIK
notes: as for B1
B20: h1722-008 (antibody, V domains shown)
VH: EVQLVQSGAEVKKPGSSVKVSCKASGNTFSDYWMHWVKQAPGQGLEWIGMLHPNSGTTSFNEKFKIRTTITIDKSTSTAYMELSSLRSEDTAVYYCASDYSGPFAYWGQGTLVTVSS
VL: DIQMTQSPSSLSASVGDRVTITCSASSSVNYIHWYQQKPGKAPKRWIYDTSKLASGVPSRFSGSGSGTDFTLTISSLQPEDFATYYCQQWRSNPLTFGQGTKLEIK
notes: as for B1

The binders below were run against T1, CD96 extracellular region with His tag (CD96-His) (human, UniProt P40200 22-519) (assay: SPR (Biacore), antibody captured, CD96-ECD-His as mobile phase).
T1 construct: also called CD96-ECD-His; Bio-CD96-His (biotin-labelled form)
T1 sequence: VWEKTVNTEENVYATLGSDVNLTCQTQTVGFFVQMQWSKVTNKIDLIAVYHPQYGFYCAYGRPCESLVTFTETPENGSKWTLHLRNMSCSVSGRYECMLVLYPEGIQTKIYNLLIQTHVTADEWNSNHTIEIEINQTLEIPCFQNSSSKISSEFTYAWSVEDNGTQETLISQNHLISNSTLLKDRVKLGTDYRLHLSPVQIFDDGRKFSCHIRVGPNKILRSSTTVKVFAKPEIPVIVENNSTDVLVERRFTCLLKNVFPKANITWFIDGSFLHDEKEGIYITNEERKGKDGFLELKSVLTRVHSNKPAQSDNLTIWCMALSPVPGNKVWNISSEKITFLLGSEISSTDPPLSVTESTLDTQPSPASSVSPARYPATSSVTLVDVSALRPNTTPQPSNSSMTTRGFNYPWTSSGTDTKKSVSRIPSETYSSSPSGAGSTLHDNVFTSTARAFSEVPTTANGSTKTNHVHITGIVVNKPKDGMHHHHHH
Source text: Protein A biosensor chip was used to capture antibodies to be tested, then CD96 antigen was flowed on the surface of the chip, and real time reaction signal was detected by Biacore to obtain the binding and dissociation curve. After the dissociation of each experimental cycle was completed, the biosensor chip was washed and regenerated with a glycine-hydrochloric acid regeneration solution (pH 1.5).

Point of comparison: B14, Kd 2.22 nM. Against it:
- B1 — 1.7-fold higher, 3.88 nM
- B2 — 1.5-fold higher, 3.37 nM
- B3 — 1.8-fold higher, 4.08 nM
- B4 — 1.9-fold higher, 4.31 nM
- B5 — 1.7-fold higher, 3.82 nM
- B6 — 1.7-fold higher, 3.7 nM
- B7 — 1.5-fold higher, 3.41 nM
- B8 — within 1.5-fold, 1.87 nM
- B9 — within 1.5-fold, 2.73 nM
- B10 — within 1.5-fold, 2.2 nM
- B11 — within 1.5-fold, 2 nM
- B12 — within 1.5-fold, 2.25 nM
- B13 — within 1.5-fold, 2.29 nM
- B15 — within 1.5-fold, 2.01 nM
- B16 — within 1.5-fold, 2.04 nM
- B17 — within 1.5-fold, 2.12 nM
- B18 — within 1.5-fold, 2.14 nM
- B19 — 1.7-fold lower, 1.31 nM
- B20 — 2.2-fold lower, 1 nM
